Measurements: US20220233705A1, “COMBINED THERAPIES OF ACTIVATABLE IMMUNE CHECKPOINT INHIBITORS AND CONJUGATED ACTIVATABLE ANTIBODIES” (CYTOMX THERAPEUTICS, INC., priority 2019, published 2022)

Columns and labels:
HCC1806 cells = experiment: Immunogenic cell death markers in HCC1806 cells; type: cell-based, human; conditions: HCC1806, 48 hours; for secreted HMGB1: ELISA
Procedure: (§1) ICD can be measured by markers such as the expression of calreticulin on the surface of cancer cells and secretion of HMGB1. In this exemplary study, A375 cells (ATCC) derived from a human malignant melanoma were cultured in RPMI-1640™ medium with 10% (v/v) fetal bovine serum for 48 hours in the presence of the indicated amount of drug. HCC1806 cells (ATCC) derived from human breast carcinoma were cultured in DME medium for 48 hours in the presence of the indicated amount of drug. CT26 cells and CT26 huCD166 cells (CT26 cells expressing human CD166 polypeptide as discussed herein) were cultured in RPMI-1640™ medium with 10% (v/v) fetal bovine serum for 72 hours in the presence of the indicated amount of drug. Following incubation, calreticulin expression was detected by flow cytometry using a FITC conjugated calreticulin antibody (Novus Bio, clone 1G6A7; #NBP1-47518F). HMGB1 protein was detected by ELISA (Tecan HMGB1 ELISA kit, #NC9959947).

dendritic cells (MoDCs) = experiment: Dendritic cell maturation markers by flow cytometry; type: cell-based, human; parameters: dose or concentration left out as unconfirmed; conditions: 48 hours, compared to untreated cells
Procedure: In this study, dendritic cells were cultured with […] anti-CD166 antibody conjugated to DM4 (CD166-DM4 ADC) or a dendritic cell maturation cocktail (Stem Cell Technology DC maturation kit (#10989)) for 48 hours. […] The MoDCs were then assessed for maturation by flow cytometric measurement of dendritic cell maturation markers CD80 (2D10 antibody, BioLegend), CD83 (HB15e antibody, BioLegend), HLA-DR (L243 antibody, BioLegend), and CD86 (IT2.2 antibody, BioLegend).

CT26 huCD166 cells = experiment: Calreticulin surface expression on CT26 huCD166 cells; type: cell-based, mouse; conditions: CT26 huCD166, 72 hours
Procedure: as §1

A375 cells = experiment: Immunogenic cell death markers in A375 cells; type: cell-based, human; conditions: A375, 48 hours; for secreted HMGB1: ELISA
Procedure: as §1

CT26 cells = experiment: Calreticulin surface expression on CT26 cells; type: cell-based, mouse; conditions: CT26, 72 hours
Procedure: as §1

[1] = system: allogenic CD4+ T cells co-cultured with MoDCs; type: cell-based, human
[2] = system: human dendritic cells (MoDC); experiment: Cytotoxicity towards fully activated MoDC (CytoTox-Glo); conditions: 48 hours
activated human T cells = experiment: Cytotoxicity towards activated T cells (CellTiter-Glo)

Molecule	expression of calreticulin (CRT) (HCC1806 cells)	secreted HMGB1 (HCC1806 cells)	expression of CD83 (dendritic cells (MoDCs))	expression of CD86 (dendritic cells (MoDCs))	surface expression of calreticulin (CRT) (CT26 huCD166 cells)	expression of calreticulin (CRT) (A375 cells)	secreted HMGB1 (A375 cells)	surface expression of calreticulin (CRT) (CT26 cells)	production of IL-2 by allogeneic T cells [1]	cytotoxic activity towards MoDCs [2]	doses at which cytotoxicity was observed ([2]; fully activated MoDC)	cytotoxic activity towards activated T cells (activated human T cells; 72 hours treatment)	doses at which cytotoxicity was observed (activated human T cells; activated T cells, 72 hours)
COc1cc2cc(c1Cl)N(C)C(=O)C[C@H](OC(=O)[C@H](C)N(C)C(=O)CCC(C)(C)S)[C@]1(C)O[C@H]1[C@H](C)[C@@H]1C[C@@](O)(NC(=O)O1)[C@H](OC)/C=C/C=C(\C)C2 [free DM4, DM4, reference compound]	increased expression	increased amounts	slightly increased	slightly increased	increased surface expression	increased expression	increased amounts	increased surface expression	–	–	–	–	–
anti-CD166 ADC (conjugate) VH: QITLKESGPTLVKPTQTLTLTCTFSGFSLSTYGMGVGWIRQPPGKALEWLANIWWSEDKHYSPSLKSRLTITKDTSKNQVVLTITNVDPVDTATYYCVQIDYGNDYAFTYWGQGTLVTVSS VL: DIVMTQSPLSLPVTPGEPASISCRSSKSLLHSNGITYLYWYLQKPGQSPQLLIYQMSNLASGVPDRFSGSGSGTDFTLKISRVEAEDVGVYYCAQNLELPYTFGQGTKLEIK	increased expression	increased amounts	slightly increased	slightly increased	increased surface expression	increased expression	increased amounts	increased surface expression	slightly increase	minimal cytotoxic activity	above 10 nM	minimal cytotoxic activity	above 10 nM
